In article PMC9209732, “Transcriptional Regulation of ING5 and its Suppressive Effects on Gastric Cancer”:

Target: YY1 (UniProt P25490 1-414)
Assay: EMSA; EMSA: 5-10 ug protein, 50 nM probe, 5% non-denaturing PAGE, streptavidin-HRP/ECL; buffer, salt, pH and temperature not stated
Details: protein: recombinant; tags: His (GST also stated in Results); label: 3' biotin; blunt

Chain of YY1 (P25490 whole entry): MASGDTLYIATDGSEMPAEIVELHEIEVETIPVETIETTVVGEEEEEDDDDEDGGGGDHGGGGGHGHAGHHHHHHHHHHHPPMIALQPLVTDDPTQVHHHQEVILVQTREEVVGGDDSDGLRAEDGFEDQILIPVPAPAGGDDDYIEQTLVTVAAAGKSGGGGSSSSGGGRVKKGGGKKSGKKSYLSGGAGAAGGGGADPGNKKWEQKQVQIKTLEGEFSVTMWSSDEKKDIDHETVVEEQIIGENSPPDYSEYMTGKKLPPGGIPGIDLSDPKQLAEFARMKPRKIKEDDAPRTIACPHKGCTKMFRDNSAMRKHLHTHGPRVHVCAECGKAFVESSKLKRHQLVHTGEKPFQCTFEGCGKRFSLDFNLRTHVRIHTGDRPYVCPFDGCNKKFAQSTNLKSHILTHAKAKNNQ

B1: ING5 promoter probe (-48 to 25) (dsDNA)
DNA 1: CGCTGGCACCGCCCCGCCCCCGCCTCCCGCGGCACCGCCCGCCCGCGCAGACCCCGAGCGCGGCCGCGGACGAA
DNA 2: TTCGTCCGCGGCCGCGCTCGGGGTCTGCGCGGGCGGGCGGTGCCGCGGGAGGCGGGGGCGGGGCGGTGCCAGCG
B1: binds.
